Results published in the RNAGym collection of RNA variant scans (doi:10.1021/acssynbio.7b00057).

B1: Pistol ribozyme (parent)
chain: GGGUCGUUGUUCCAUAAUCGCGUGGAUAUGGCACGCAAGUUUCUACCGGGCACCGUAAAUGUCCGACUGGAGCCGUUCGGGCGGCUAUAAACAGACCUCAGGCCCGAAGCGUGGCGGCACCUGCCGCCGGUGGUAAAAAAGAUCGGAAGAGCACACGUCU

Variants of: B1
Experiment: aptazyme ON/OFF ratio, guanine; higher = stronger switching; co-transcriptional cleavage with and without guanine

Variant	aptazyme ON/OFF ratio
U7A U8A U10C U11C C12G	1.2
U7A U8A U10C U11C C12U	1.07
U7A U8A U10C U11C C12A	1.17
U7A U8A G9U U10C U11C C12U C13G	1.02
U7A U8A G9U U10C U11C C12U C13U	1.08
U7A U8A G9U U10C U11C C12U C13A	1.02
U7A U8A G9U U10C C12G C13U	1.4
U7A U8A G9U U10C C12G C13G	1.35
U7A U8A G9U U10C C12G C13A	1.31
U7A U8A G9U U11C C12U C13A	1.18
U7A U8A G9U U11C C12U C13G	1.02
U7A U8A G9U U11C C12U C13U	1.32
U7A U8A G9U U11G C12A C13A	1.29
U7A U8A G9U U11G C12A C13U	1.22
U7A U8A G9U U11G C12A C13G	1.27
U7A U8A G9U U10C U11C C12G	1.06
U7A U8A G9U U10C U11C C12A	1.04
U7A U8A G9U U10C U11C C12U	1.02
U7A U8A G9U U11A C12A C13U	1.22
U7A U8A G9U U11A C12A C13A	1.04
U7A U8A G9U U11A C12A C13G	1.12
U7A U8A U10A U11G C12U C13G	1.15
U7A U8A U10A U11G C12U C13A	1.34
U7A U8A U10A U11G C12U C13U	1.31

Variant	aptazyme ON/OFF ratio
U7A U8A G9U U11C C12A C13U	1.17
U7A U8A G9U U11C C12A C13G	1.13
U7A U8A G9U U11C C12A C13A	1.12
U7A U8A G9U U10C U11C C13U	1.04
U7A U8A G9U U10C U11C C13A	1.04
U7A U8A G9U U10C U11C C13G	1.04
U7A U8A U10A U11A C12U	1.2
U7A U8A U10A U11A C12A	1.18
U7A U8A U10A U11A C12G	1.19
U7A U8A G9U U10C C12U C13U	1.43
U7A U8A G9U U10C C12U C13G	1.15
U7A U8A G9U U10C C12U C13A	1.19
U7A U8A G9U U10C U11A	1.29
U7A U8A G9U U10C U11C	1.04
U7A U8A G9U U10C U11G	1.33
U7A U8A G9U U10G U11A C12A C13A	1.19
U7A U8A G9U U10G U11A C12A C13G	1.09
U7A U8A G9U U10G U11A C12A C13U	1.16
U7A U8A G9U U11A C12U C13A	1.04
U7A U8A G9U U11A C12U C13U	1.28
U7A U8A G9U U11A C12U C13G	1.23
U7A U8A G9U U10C U11G C12G C13U	1.12
U7A U8A G9U U10C U11G C12G C13A	1.15
U7A U8A G9U U10C U11G C12G C13G	1.21

Variant	aptazyme ON/OFF ratio
U7A U8A G9U U10C U11G C12U C13G	1.07
U7A U8A G9U U10C U11G C12U C13U	1.22
U7A U8A G9U U10C U11G C12U C13A	1.15
U7A U8A U10C C12A C13G	1.08
U7A U8A U10C C12A C13U	1.18
U7A U8A U10C C12A C13A	1.13
U7A U8A G9U U10C U11A C12U C13A	1.14
U7A U8A G9U U10C U11A C12U C13U	1.22
U7A U8A G9U U10C U11A C12U C13G	1.18
U7A U8A G9U U10G U11G	1.09
U7A U8A G9U U10G U11A	1.03
U7A U8A G9U U10G U11C	1.05
U7A U8A G9U U10G C12G C13A	1.21
U7A U8A G9U U10G C12G C13G	1.08
U7A U8A G9U U10G C12G C13U	1.23
U7A U8A U10C C13G	1.09
U7A U8A U10C C13U	1.98
U7A U8A U10C C13A	1.11
U7A U8A G9U U11A C13A	1.19
U7A U8A G9U U11A C13U	1.26
U7A U8A G9U U11A C13G	1.06
U7A U8A G9U U10G C12U	1.33
U7A U8A G9U U10G C12A	1.22
U7A U8A G9U U10G C12G	1.16

Variant	aptazyme ON/OFF ratio
U7A U8A U10C	3.05
U7A U8A U10A	1.05
U7A U8A G9U U11A C12G C13G	1.16
U7A U8A G9U U11A C12G C13A	0.953
U7A U8A G9U U11A C12G C13U	1.14
U7A U8A G9U U10G U11G C13A	1.24
U7A U8A G9U U10G U11G C13G	1.3
U7A U8A G9U U10G U11G C13U	1.17
U7A U8A U10A U11G	1.17
U7A U8A U10A U11A	1.18
U7A U8A U10A U11C	0.996
U7A U8A U10A U11A C13G	1.18
U7A U8A U10A U11A C13U	1.11
U7A U8A U10A U11A C13A	1.16
U7A U8A U10A U11A C12A C13A	1.12
U7A U8A U10A U11A C12A C13G	1.19
U7A U8A U10A U11A C12A C13U	1.25
U7A U8A U10C C12G C13A	1.17
U7A U8A U10C C12G C13U	1.26
U7A U8A U10C C12G C13G	1.19
U7A U8A G9U U10A U11A C12G C13A	1.15
U7A U8A G9U U10A U11A C12G C13U	1.04
U7A U8A G9U U10A U11A C12G C13G	1.14
U7A U8A G9U U10A U11G C12A C13U	1.18

Variant	aptazyme ON/OFF ratio
U7A U8A G9U U10A U11G C12A C13A	1.07
U7A U8A G9U U10A U11G C12A C13G	1.12
U7A U8A G9U U10C C12A C13G	1.15
U7A U8A G9U U10C C12A C13U	1.16
U7A U8A G9U U10C C12A C13A	1.11
U7A U8A G9U U11C C13G	1.05
U7A U8A G9U U11C C13U	1.04
U7A U8A G9U U11C C13A	1.11
U7A U8A G9U U10C C13A	1.08
U7A U8A G9U U10C C13U	1.2
U7A U8A G9U U10C C13G	1.03
U7A U8A G9U U10G U11G C12G C13A	1.21
U7A U8A G9U U10G U11G C12G C13G	1.16
U7A U8A G9U U10G U11G C12G C13U	1.22
U7A U8A G9U U10G U11A C13G	1.04
U7A U8A G9U U10G U11A C13U	1.1
U7A U8A G9U U10G U11A C13A	1.02
U7A U8A U10C U11A C12G C13G	1.24
U7A U8A U10C U11A C12G C13A	1.12
U7A U8A U10C U11A C12G C13U	1.12
U7A U8A G9U U10A U11G C12G C13A	1.23
U7A U8A G9U U10A U11G C12G C13G	1.23
U7A U8A G9U U10A U11G C12G C13U	1.36
U7A U8A U10A C12A C13G	1.03

Variant	aptazyme ON/OFF ratio
U7A U8A U10A C12A C13A	1.23
U7A U8A U10A C12A C13U	1.37
U7A U8A U10A U11C C13U	0.989
U7A U8A U10A U11C C13G	1.06
U7A U8A U10A U11C C13A	1.04
U7A U8A U10A U11G C12U	1.17
U7A U8A U10A U11G C12A	1.09
U7A U8A U10A U11G C12G	0.984
U7A U8A G9U U10G C12A C13G	1.09
U7A U8A G9U U10G C12A C13U	1.19
U7A U8A G9U U10G C12A C13A	1.38
U7A U8A G9U U10C U11A C12G C13G	1.17
U7A U8A G9U U10C U11A C12G C13A	1.25
U7A U8A G9U U10C U11A C12G C13U	1.16
U7A U8A G9U U10G U11C C12G C13G	1.14
U7A U8A G9U U10G U11C C12G C13U	1.24
U7A U8A G9U U10G U11C C12G C13A	1.09
U7A U8A U10A U11A C12G C13A	1.05
U7A U8A U10A U11A C12G C13U	1.13
U7A U8A U10A U11A C12G C13G	1.45
U7A U8A G9U U11G C12G C13G	1.22
U7A U8A G9U U11G C12G C13A	1.22
U7A U8A G9U U11G C12G C13U	1.1
U7A U8A G9U U10G C12U C13U	1.51

Variant	aptazyme ON/OFF ratio
U7A U8A G9U U10G C12U C13G	1.26
U7A U8A G9U U10G C12U C13A	1.17
U7A U8A G9U U10C U11A C12A C13A	1.2
U7A U8A G9U U10C U11A C12A C13G	1.14
U7A U8A G9U U10C U11A C12A C13U	1.23
U7A U8A U10C U11C C12A C13A	1.06
U7A U8A U10C U11C C12A C13U	1.12
U7A U8A U10C U11C C12A C13G	1.09
U7A U8A G9U U10G U11G C12A C13U	1.17
U7A U8A G9U U10G U11G C12A C13G	1.2
U7A U8A G9U U10G U11G C12A C13A	1.24
U7A U8A G9U U10A U11G C12A	1.07
U7A U8A G9U U10A U11G C12U	1.46
U7A U8A G9U U10A U11G C12G	1.19
U7A U8A G9U U10C U11C C12A C13G	1.12
U7A U8A G9U U10C U11C C12A C13A	1.04
U7A U8A G9U U10C U11C C12A C13U	1.05
U7A U8A G9U U10A U11C C12U	1.1
U7A U8A G9U U10A U11C C12A	1.22
U7A U8A G9U U10A U11C C12G	1.18
U7A U8A U10C U11A C13G	1.09
U7A U8A U10C U11A C13A	1.13
U7A U8A U10C U11A C13U	1.05
